Results on 27 molecules are retold here after paper PMC10786891, “Massively parallel profiling of RNA-targeting CRISPR-Cas13d”.

To fix the notation:
T1: EsCas13d, nuclease-dead (Eubacterium siraeum, UniProt B0MS50, R295A;H300A;R849A;H854A)
T1 sequence: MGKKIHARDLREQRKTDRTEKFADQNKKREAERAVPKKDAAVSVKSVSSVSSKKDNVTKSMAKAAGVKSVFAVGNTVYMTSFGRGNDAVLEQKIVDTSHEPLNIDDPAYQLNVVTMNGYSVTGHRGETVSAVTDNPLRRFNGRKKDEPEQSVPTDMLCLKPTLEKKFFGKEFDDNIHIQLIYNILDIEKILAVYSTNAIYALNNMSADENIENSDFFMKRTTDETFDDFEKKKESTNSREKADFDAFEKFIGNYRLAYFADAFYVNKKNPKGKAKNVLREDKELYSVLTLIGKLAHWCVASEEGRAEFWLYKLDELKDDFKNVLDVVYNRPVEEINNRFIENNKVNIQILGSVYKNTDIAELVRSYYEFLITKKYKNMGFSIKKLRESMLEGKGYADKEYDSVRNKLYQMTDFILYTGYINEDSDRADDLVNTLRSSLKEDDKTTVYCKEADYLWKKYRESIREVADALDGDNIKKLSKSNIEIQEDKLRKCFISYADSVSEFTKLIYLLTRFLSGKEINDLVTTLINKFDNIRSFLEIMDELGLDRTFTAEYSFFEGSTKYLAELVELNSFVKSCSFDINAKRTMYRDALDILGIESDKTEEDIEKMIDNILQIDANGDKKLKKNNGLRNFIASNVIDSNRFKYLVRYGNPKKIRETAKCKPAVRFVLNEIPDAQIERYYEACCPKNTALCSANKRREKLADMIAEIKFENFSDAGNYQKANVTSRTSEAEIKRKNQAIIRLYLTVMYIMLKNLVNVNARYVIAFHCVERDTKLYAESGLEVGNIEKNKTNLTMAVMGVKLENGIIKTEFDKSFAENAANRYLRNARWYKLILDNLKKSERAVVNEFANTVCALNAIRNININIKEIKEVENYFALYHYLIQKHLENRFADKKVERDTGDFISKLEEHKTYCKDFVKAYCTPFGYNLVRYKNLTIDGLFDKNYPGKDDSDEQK

B1: target 3 insG 3' of 2,insA 3' of 2 (mixed)
RNA 1: CACCCGUGCAAAAUUGCAGGGGUCUAAAACGACCUGAAUAUUUCAGAUCAAA
RNA 2: GGGAAUGGAUCCACAUCUACGAAUUCGUUUUUGAUCUGAAAUAUUCAGGUGACUGCAGAUCGGAAGAGCACACGU
B2: target 3 U2A,U21A (mixed)
RNA 1: B1 RNA 1
RNA 2: GGGAAUGGAUCCACAUCUACGAAUUCGUUUAUGAUCUGAAAUAUUCAGGACUGCAGAUCGGAAGAGCACACGU
B3: target 3 A11C,G14U (mixed)
RNA 1: B1 RNA 1
RNA 2: B2 RNA 2 with A31U, G38U, A41C, A50U
B4: target 3 A5C,C6G (mixed)
RNA 1: B1 RNA 1
RNA 2: B2 RNA 2 with A31U, C46G, A47C, A50U
B5: target 3 U2G,U7C (mixed)
RNA 1: B1 RNA 1
RNA 2: B2 RNA 2 with A31U, U45C, A50G
B6: target 3 insG 3' of 7,insC 3' of 3 (mixed)
RNA 1: B1 RNA 1
RNA 2: B1 RNA 2 with C46G, A47C, G48A, U50G, G51C, A52U
B7: target 3 U2C,U22A (mixed)
RNA 1: B1 RNA 1
RNA 2: B2 RNA 2 with U30A, A31U, A50C
B8: target 3 insU 3' of 22,insC 3' of 4 (mixed)
RNA 1: B1 RNA 1
RNA 2: GGGAAUGGAUCCACAUCUACGAAUUCGUUUUUUGAUCUGAAAUAUUCAGCGUCUGCAGAUCGGAAGAGCACACGU
B9: target 3 U2A,U8A (mixed)
RNA 1: B1 RNA 1
RNA 2: B2 RNA 2 with A31U, U44A
B10: target 3 insG 3' of 5,insU 3' of 4 (mixed)
RNA 1: B1 RNA 1
RNA 2: B1 RNA 2 with A52U
B11: target 3 insC 3' of 11,insA 3' of 2 (mixed)
RNA 1: B1 RNA 1
RNA 2: B1 RNA 2 with U42C, A43U, U44A, C46U, A47C, G48A, U50G, G51U
B12: target 3 insA 3' of 8 (mixed)
RNA 1: B1 RNA 1
RNA 2: GGGAAUGGAUCCACAUCUACGAAUUCGUUUUUGAUCUGAAAUAUAUCAGGUCUGCAGAUCGGAAGAGCACACGU
B13: target 3 G3U,U7G (mixed)
RNA 1: B1 RNA 1
RNA 2: B2 RNA 2 with A31U, U45G, G49U, A50U
B14: target 3 C1G,A9C (mixed)
RNA 1: B1 RNA 1
RNA 2: B2 RNA 2 with A31U, A43C, A50U, C51G
B15: target 3 insG 3' of 5,insC 3' of 3 (mixed)
RNA 1: B1 RNA 1
RNA 2: B1 RNA 2 with U50G, G51C, A52U
B16: target 3 complement block 5-9 (mixed)
RNA 1: B1 RNA 1
RNA 2: B2 RNA 2 with A31U, A43U, U44A, U45A, C46G, A47U, A50U
B17: target 3 insU 3' of 11 (mixed)
RNA 1: B1 RNA 1
RNA 2: B12 RNA 2 with A43U, U44A, A45U
B18: target 3 G4A,U7C (mixed)
RNA 1: B1 RNA 1
RNA 2: B2 RNA 2 with A31U, U45C, G48A, A50U
B19: target 3 insA 3' of 7,insA 3' of 3 (mixed)
RNA 1: B1 RNA 1
RNA 2: B1 RNA 2 with C46A, A47C, G48A, U50G, G51A, A52U
B20: target 3 insG 3' of 22,insG 3' of 5 (mixed)
RNA 1: B1 RNA 1
RNA 2: B8 RNA 2 with U31G, C50G
B21: target 3 A13G,A18G (mixed)
RNA 1: B1 RNA 1
RNA 2: B2 RNA 2 with A31U, A34G, A39G, A50U
B22: target 3 G4C,U7G (mixed)
RNA 1: B1 RNA 1
RNA 2: B2 RNA 2 with A31U, U45G, G48C, A50U
B23: target 3 insG 3' of 8,insU 3' of 5 (mixed)
RNA 1: B1 RNA 1
RNA 2: B1 RNA 2 with U45G, C46U, A47C, G48A, G49U, U50G, A52U
B24: target 1 U11G,A14G (mixed)
RNA 1: CACCCGUGCAAAAAUGCAGGGGUCUAAAACUGAGCGGAUAACCUCUCUAUGG
RNA 2: GGGAAUGGAUCCACAUCUACGAAUUCGUACCAUAGAGGGGGUAUCCGCUCACCGAGAUCGGAAGAGCACACGU
B25: target 1 U3A,C6U (mixed)
RNA 1: B24 RNA 1
RNA 2: B24 RNA 2 with G38A, G41U, C46U, U49A
B26: target 1 insC 3' of 8,insU 3' of 7 (mixed)
RNA 1: B24 RNA 1
RNA 2: GGGAAUGGAUCCACAUCUACGAAUUCGUACCAUAGAGAGGUUAUCCUCGCUCACCGAGAUCGGAAGAGCACACGU
B27: target 1 insG 3' of 21,insC 3' of 1 (mixed)
RNA 1: B24 RNA 1
RNA 2: GGGAAUGGAUCCACAUCUACGAAUUCGUACCGAUAGAGAGGUUAUCCGCUCACCCGAGAUCGGAAGAGCACACGU

Residue numbers refer to the chain shown, from its start. In names and notes the source's numbering stands.

The series has as its target T1, EsCas13d, nuclease-dead. Kind of series: crRNA (strand 1, pre-loaded); Mg2+; 40 mM Tris-HCl pH 7.5, 150 mM NaCl, 6 mM MgCl2, 1 mM DTT, 0.1% Tween-20, 0.2 mg/ml BSA; 25 C; 10 min per concentration, then washed. The note with it: tags: His6-TwinStrep-SUMO cleaved; N-terminal SNAP kept (SNAP-Surface 488); label: 3' end held by stalled T7 RNA polymerase.
As for B1, the Kd – broadly, the constant that tells how readily two partners part at equilibrium – turned out to be 20.3 ± 2.6 nM.

Take B2: the affinity, expressed as Kd, was 39.5 ± 6 nM.

As for B3, the dissociation constant Kd stood at 56.5 ± 27 nM.

For the molecule B4, the dissociation constant Kd came to 53.5 ± 5.5 nM.

Molecule B5 had an equilibrium dissociation constant (Kd) of 28 ± 4.5 nM. This Kd lies about 1.9-fold lower than the previous one.

In turn, B6 had a Kd of 46 ± 5 nM.

Molecule B7 yielded a Kd of 77.5 ± 14 nM.

As to B8, the affinity, expressed as Kd, was 19.5 ± 4.5 nM. This Kd lies about 4-fold lower than the previous one.

In the case of B9, the Kd came out at 39 ± 6 nM.

B10 gave a dissociation constant (Kd) of 20.4 ± 1.8 nM.

The molecule B11 gave a Kd of 45.5 ± 11.5 nM.

B12 returned a dissociation constant Kd of 50.5 ± 10 nM.

In the case of B13, the Kd came out at 33.1 ± 4.2 nM.

Turning to B14, the equilibrium dissociation constant (Kd) is 54 ± 18 nM.

With B15, the equilibrium dissociation constant (Kd) came to 76 ± 12.5 nM.

Take B16: the Kd was determined as 90 ± 9.5 nM.

Molecule B17 gave an equilibrium dissociation constant (Kd) of 81 ± 31 nM.

As to B18, the equilibrium dissociation constant (Kd) came to 71 ± 12.5 nM.

Take B19: the dissociation constant Kd came out at 37 ± 4.5 nM.

B20 yielded a dissociation constant (Kd) of 41.5 ± 18 nM.

The molecule B21 showed a Kd of around 100 nM.

Consider B22, for which binding was put at a Kd of 44.1 ± 4.1 nM.

The molecule B23 came in with a Kd of 31.7 ± 2.8 nM. This Kd and that of the molecule before are within 1.5-fold of each other.

Turning to B24, binding was put at a Kd of 22.1 ± 1.3 nM.

Take B25: the Kd was found to be 5.27 ± 0.27 nM.

Molecule B26 yielded a Kd of 13.6 ± 1.1 nM.

Consider B27, for which binding was characterised by a dissociation constant (Kd) of 69 ± 12 nM.
